# Patent publication US20260274955A1 (JANUX THERAPEUTICS, published 2026)
# Target: T1, Anti-CD28 Fab (SEQ ID NOs: 202, 203)
# T1 construct: biotinylated and captured on neutravidin coated plates in the phage ELISA
# Experiment: phage ELISA on captured biotinylated Fab;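 note: wells preblocked with or without CD28 antigen, then clonal phage supernatant added briefly, washed, and bound phage read out by ELISA using HRP-linked anti-M13 antibody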
# Method: Clonal phage were harvested as crude supernatants and screened via standard ELISAs. […] Prior to the addition of clonal phage, wells were incubated with blocking buffer and CD28 antigen or blocking buffer alone. Without washing or aspirating, clonal phage supernatants were then added to the wells and incubated for a short time. Wells were then washed followed by detection of bound phage using a horse radish conjugated anti-M13 antibody.
# T1 sequence (VH, as listed by the source, chain 1 of 2): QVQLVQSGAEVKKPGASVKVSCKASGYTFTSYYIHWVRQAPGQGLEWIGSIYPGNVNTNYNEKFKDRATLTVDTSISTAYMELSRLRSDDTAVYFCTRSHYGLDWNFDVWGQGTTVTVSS
# T1 sequence (VL, as listed by the source, chain 2 of 2): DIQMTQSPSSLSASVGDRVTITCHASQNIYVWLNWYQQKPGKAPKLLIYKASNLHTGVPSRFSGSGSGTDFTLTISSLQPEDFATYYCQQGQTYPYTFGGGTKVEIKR
row,Binder,Anti-CD28 Fab signal
1,YCEGHAREHMAKCL [Phage-250],2.02
2,YCDGHLIEYMYKCL [Phage-278],1.95
3,YCDGHTQEYMAKCL [Phage-168],2.17
4,YCAGHLEIYMNKCL [Phage-283],1.94
5,YCDGHVAEYMAKCL [Phage-177],2.16
6,YCAGHAPEYMQKCL [Phage-174],2.16
7,YCAGHAPEYIQKCL [Phage-172],2.17
8,YCAGHLPEYMMKCL [Phage-248],2.03
9,YCDGHVAEYRDKCL [Phage-173],2.17
10,YCEGHSLEYMGKCL [Phage-253],2.02
11,YCDGHLPEYMWKCI [Phage-178],2.15
12,YCEGHLPVYMWKCL [Phage-169],2.17
13,YCEGHAPQYIAKCL [Phage-246],2.03
14,YCDGHMPEYMWKCL [Phage-170],2.17
15,YCDGHAPEYMEKCL [Phage-254],2.01
16,YCDGHLPEYLGKCL [Phage-274],1.96
17,YCDGHSAEYMWKCL [Phage-179],2.15
18,YCDGHSAEYMQKCL [Phage-279],1.95
19,YCDGHSSEYMIKCL [Phage-277],1.95
20,YCDGHSALYMWKCL [Phage-276],1.96
21,YCEGHLPQYLQKCL [Phage-176],2.16
22,YCQGHLPEYMSKCL [Phage-258],2.01
23,YCAGHSPEYMTKCL [Phage-171],2.17
24,YCEGHSPEYMTKCL [Phage-251],2.02
25,YCEGHRPEYMQKCL [Phage-249],2.03
26,YCDGHSNEYMAKCL [Phage-175],2.16
27,YCDGHSLEYMAKCL [Phage-180],2.15
28,YCDGHSPMYIGKCL [Phage-247],2.03
